The record followed here is patent US20200332015A1 (NAMAB THERAPEUTICS, published 2020).

Assay [1] has as its target human PDL1-Fc chimeric protein (human, UniProt Q9NZQ7 19-238, limits assumed). Briefly: SPR T200, antigen-Fc captured, molecule as analyte. As to the method:
(§1) Affinity to PDL1 of the different species was determined by SPR measurements using a Biacore T200 device (GE Healthcare). An antibody specific for the Fc region of human IgGs was immobilized on a sensor chip (CM5 sensor chip, GE Healthcare) by amine-coupling. For all formats, with the exception of the Fc containing Morrison formats, PDL1-Fc chimeric protein from different species were captured by the immobilized antibody. Three-fold serial dilutions of the molecules specific for PDL1 (0.12-90 nM) were injected into the flow cells for three minutes and dissociation was monitored for 10 minutes. After each injection cycle, surfaces were regenerated with one injection of a 3 M MgCl₂ solution. The apparent dissociation (kd) and association (kₐ) rate constants and the apparent dissociation equilibrium constant (KD) were calculated using one-to-one Langmuir binding model. Affinity to CD137 of the different species was determined using the identical setup as for PDL1 with the exception that CD137-Fc chimeric proteins from different species were captured by the immobilized antibody.

Assay [2] addresses cynomolgus PDL1-Fc chimeric protein (cynomolgus, UniProt G7PSE7 19-238). Briefly: SPR T200, antigen-Fc captured, molecule as analyte. How it is done:
as §1

Assay [3] has as its target T1, Fc tagged human CD137 (R&D Systems, cat. 838-4B-100) (human, UniProt Q07011 24-186).
T1 construct: also called CD137 Fc chimera; human CD137-Fc chimeric protein
Briefly: SPR T200, Fc-tagged antigen captured, scFv analyte. How it is done: (§2) Affinity of the humanized scFvs to human CD137 was determined by SPR analysis on a T200 device (Biacore, GE Healthcare). […] After each analyte injection cycle, the anti-human Fc-specific IgG was regenerated and new antigen was captured. The scFvs were injected as analyte using a dose response multi-cycle kinetic assay over the captured CD137 with concentrations of the analyte ranging from 0.19 to 45 nM (three-fold dilutions steps) diluted in running buffer. Association and dissociation time were set to 300 s and 720 s, respectively. Obtained sensorgrams were fitted using the 1:1 binding model.

For assay [4], the target named is T2, cynomolgus monkey Fc-tagged CD137 (R&D Systems, cat. 9324-4B-100) (cynomolgus monkey, UniProt A9YYE7 24-186).
T2 construct: also called cynomolgus CD137-Fc chimeric protein
Briefly: SPR T200, Fc-tagged antigen captured, scFv analyte. As to the method:
as §2
Cross-reactivity to cynomolgus CD137 was measured with cynomolgus monkey Fc-tagged CD137 (R&D Systems, cat. 9324-4B-100) in a similar assay as used to measure binding to human CD137.

Assay [5] addresses T3, human CD137 expressed on Jurkat cells (human, UniProt Q07011 24-255). Briefly: cell-based or functional assay.
The target of assay [6] is T3, human CD137 expressed on Jurkat cells. Briefly: cell-based or functional assay. This is another data set of the same source.
The target is the same in assay [7]. Briefly: cell-based or functional assay. The source holds these as a separate data set.
Assay [8] has the same target. Briefly: cell-based or functional assay. The source holds these as a separate data set.
Assay [9] addresses T1, Fc tagged human CD137 (R&D Systems, …). Briefly: SPR T200, antigen-Fc captured, molecule as analyte. As to the method: as §1
For assay [10], the target named is T2, cynomolgus monkey Fc-tagged CD137 (R&D …). Briefly: SPR T200, antigen-Fc captured, molecule as analyte. How it is done: as §1
For assay [11], the target named is T4, mouse Fc-tagged mouse CD137 (R&D Systems, cat. 937-4B-050) (mouse, UniProt P20334 24-187).
T4 construct: also called mouse CD137-Fc chimeric protein
T4 sequence (looked up): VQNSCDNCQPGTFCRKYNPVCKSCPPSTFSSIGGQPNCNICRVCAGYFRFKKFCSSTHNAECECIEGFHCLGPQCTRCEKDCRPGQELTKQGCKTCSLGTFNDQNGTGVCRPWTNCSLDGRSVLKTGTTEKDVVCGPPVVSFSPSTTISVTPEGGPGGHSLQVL
Briefly: SPR T200, antigen-Fc captured, molecule as analyte. As to the method:
as §1

T2 sequence (A9YYE7 entry or part of it): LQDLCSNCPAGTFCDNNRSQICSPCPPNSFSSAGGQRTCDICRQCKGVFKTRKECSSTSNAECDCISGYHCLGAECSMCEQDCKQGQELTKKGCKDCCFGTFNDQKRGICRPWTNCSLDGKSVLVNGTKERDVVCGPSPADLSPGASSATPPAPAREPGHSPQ
Sequence of cynomolgus PDL1-Fc chimeric protein (G7PSE7 entry or part of it mutant): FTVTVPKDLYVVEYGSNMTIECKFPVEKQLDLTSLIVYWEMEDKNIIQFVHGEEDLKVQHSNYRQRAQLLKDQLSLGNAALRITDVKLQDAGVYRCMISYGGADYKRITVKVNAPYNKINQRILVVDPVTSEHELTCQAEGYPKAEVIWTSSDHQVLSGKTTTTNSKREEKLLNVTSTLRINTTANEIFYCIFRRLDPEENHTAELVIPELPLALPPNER

B1: PRO830 (33-03-G02 CDR, scFv) (scFv)
scFv: DIQMTQSPSSLSASVGDRVTITCQASQSINDYLAWYQQKPGKAPKLLIYKASTLASGVPSRFSGSGSGTDFTLTISSLQPEDFATYYCQQGYIITDIDNVFGTGTKVTVLGGGGGSGGGGSGGGGSGGGGSQVQLQESGPGLVKPSETLSLTCKVSGFSFSSGYDMCWIRQPPGKGLEWIGCVVAGSVDITYYASWAKGRVTISVDSSKNQFSLKLSSVTAADTAVYYCARKDAYSDAFNLWGQGTLVTVSS
Broadly, the Kd is the free concentration of one partner at which half of the binding sites on the other are occupied at equilibrium, for simple one-to-one binding. As usually defined, the koff is the first-order rate constant of dissociation. What is called kon is a measure of how fast the partners come together. In assay [1], B1 displayed a dissociation constant Kd of 0.076 nM, an off-rate (koff) of 0.00016 s⁻¹ and a kon of 2.1e+06 M⁻¹ s⁻¹. In [2], this molecule displayed a Kd of 0.094 nM, a koff of 0.0002 s⁻¹ and a kon of 2.2e+06 M⁻¹ s⁻¹.

B2: PRO1181 (38-02-A04-sc05, IF graft, VH4, scFv) (scFv)
scFv: DIQMTQSPSSLSASVGDRVTITCQASQSINNVLAWYQQKPGKPPKLLIYRASTLASGVPSRFSGSGSGTDFTLTISSLQPEDFATYYCQSSYGNYGDFGTGTKVTVLGGGGGSGGGGSGGGGSGGGGSQVQLQESGPGLVKPSETLSLTCKVSGFSFSNSYWICWVRQPPGKGLEWIGCTFVGSSDSTYYANWAKGRVTISVDSSKNQVSLKLSSVTAADTAVYFCARHPSDAVYGYANNLWGQGTLVTVSS
notes: VL-linker-VH
In assay [3], B2 registered a Kd of 1.37 nM, a koff of 0.00048 s⁻¹ and a kon of 350000 M⁻¹ s⁻¹. In [4], this molecule gave a Kd of 1.36 nM, a koff of 0.00053 s⁻¹ and a kon of 388000 M⁻¹ s⁻¹.

B3: PRO1182 (38-02-A04-sc06, FULL graft, VH4, scFv) (scFv)
scFv: DLQMTQSPSSLSASVGDRVTITCQASQSINNVLAWYQQKPGKPPKLLIYRASTLASGVPSRFSGSGSGTDFTLTISSLQPEDFATYYCQSSYGNYGDFGTGTKVTVLGGGGGSGGGGSGGGGSGGGGSQVQLQESGPGLVKPSETLSLTCKASGFSFSNSYWICWVRQPPGKGLEWIGCTFVGSSDSTYYANWAKGRVTISKDSSKNQVSLKLSSVTAADTAVYFCARHPSDAVYGYANNLWGQGTLVTVSS
notes: VL-linker-VH
In assay [3], B3 had a Kd of 0.0179 nM, a koff of 2.58e-05 s⁻¹ and a kon of 1.44e+06 M⁻¹ s⁻¹. In [4], this molecule displayed a Kd of 0.0142 nM, a koff of 1.83e-05 s⁻¹ and a kon of 1.29e+06 M⁻¹ s⁻¹.

B4: PRO1123 (38-02-A04 sc05 IF scDb-i/33_03_G02 sc01 scDb-o) (bispecific antibody)
chain: DIQMTQSPSSLSASVGDRVTITCQASQSINDYLAWYQQKPGKAPKLLIYKASTLASGVPSRFSGSGSGTDFTLTISSLQPEDFATYYCQQGYIITDIDNVFGTGTKVTVLGGGGGSQVQLQESGPGLVKPSETLSLTCKVSGFSFSNSYWICWVRQPPGKGLEWIGCTFVGSSDSTYYANWAKGRVTISVDSSKNQVSLKLSSVTAADTAVYFCARHPSDAVYGYANNLWGQGTLVTVSSGGGGSGGGGSGGGGSGGGGSIQMTQSPSSLSASVGDRVTITCQASQSINNVLAWYQQKPGKPPKLLIYRASTLASGVPSRFSGSGSGTDFTLTISSLQPEDFATYYCQSSYGNYGDFGTGTKVTVLGGGGGSQVQLQESGPGLVKPSETLSLTCKVSGFSFSSGYDMCWIRQPPGKGLEWIGCVVAGSVDITYYASWAKGRVTISVDSSKNQFSLKLSSVTAADTAVYYCARKDAYSDAFNLWGQGTLVTVSS
notes: scDb; also called PR01123
For the molecule B4, in [5], the “EC50 NFkB-luciferase, CHO-PDL1 cells” value was 5.75 ng/mL and the “Top of curve fit, NFkB-luciferase, CHO-PDL1 cells” value stood at 219. For the same molecule, in assay [6], the “EC50 NFkB-luciferase, HCC827 without IFNy” value is 16.1 ng/mL and the “Top of curve fit, NFkB-luciferase, HCC827 without IFNy” value is 123. In assay [7], the “EC50 NFkB-luciferase, HCC827 with IFNy” value was 11.9 ng/mL and the “Top of curve fit, NFkB-luciferase, HCC827 with IFNy” value stood at 154. Further, in assay [8], the “max. activation, HCC827 +IFNg” value came to 154%; the “max. activation, HCC827 -IFNg” value stood at 123%; the “max. activation, NF-kB reporter gene, CHO-PD-L1” value was found to be 219%; the “rel. IC50 (urelumab/test), HCC827 +IFNg” value was found to be 12.2 ratio. Also, in assay [8], the “rel. IC50 (urelumab/test), HCC827 -IFNg” value worked out at 6.82 ratio and the “rel. IC50 (urelumab/test), NF-kB reporter gene, CHO-PD-L1” value is 18.1 ratio. Besides, in assay [1], the Kd was 0.075 nM, the koff was found to be 0.00017 s⁻¹ and the kon was 2.3e+06 M⁻¹ s⁻¹. In assay [9], binding was put at a Kd of 0.88 nM, the koff turned out to be 0.00027 s⁻¹ and the kon was determined as 310000 M⁻¹ s⁻¹. Moreover, in [10], the Kd amounted to 1.3 nM, the koff worked out at 0.00033 s⁻¹ and the association rate constant (kon) was found to be 260000 M⁻¹ s⁻¹. In [11], this molecule registered a dissociation constant (Kd) of 410 nM, a koff of 0.027 s⁻¹ and a kon of 65000 M⁻¹ s⁻¹.

B5: PRO1126 (38-02-A04 sc01 scDb-i/33_03_G02 sc03 Full scDb-o) (bispecific antibody)
chain: DFQLTQSPSSLSASVGDRVTITCQASQSINDYLAWYQQKPGKSPKLLIYKASTLASGVPSRFSGSGSGTDFTLTISSLQPEDFATYYCQQGYIITDIDNVFGTGTKVTVLGGGGGSQVQLQESGPGLVKPSETLSLTCKVSGFSFSNSYWICWIRQPPGKGLEWIGCTFVGSSDSTYYANWAKGRVTISVDSSKNQFSLKLSSVTAADTAVYYCARHPSDAVYGYANNLWGQGTLVTVSSGGGGSGGGGSGGGGSGGGGSIQMTQSPSSLSASVGDRVTITCQASQSINNVLAWYQQKPGKAPKLLIYRASTLASGVPSRFSGSGSGTDFTLTISSLQPEDFATYYCQSSYGNYGDFGTGTKVTVLGGGGGSQSQLQESGPGLVKPSETLSLTCKASGFSFSSGYDMCWVRQPPGKGLEWIACVVAGSVDITYYASWAKGRVTISKDSSKNQVSLKLSSVTAADTAVYFCARKDAYSDAFNLWGQGTLVTVSS
notes: scDb; also called PR01126
B5: in [5], the “EC50 NFkB-luciferase, CHO-PDL1 cells” value worked out at 6 ng/mL and the “Top of curve fit, NFkB-luciferase, CHO-PDL1 cells” value was determined as 242. For the same molecule, in assay [6], the “EC50 NFkB-luciferase, HCC827 without IFNy” value is 6.97 ng/mL and the “Top of curve fit, NFkB-luciferase, HCC827 without IFNy” value was 135. In [7], the “EC50 NFkB-luciferase, HCC827 with IFNy” value amounted to 5.48 ng/mL and the “Top of curve fit, NFkB-luciferase, HCC827 with IFNy” value was found to be 208. Further, in assay [8], the “max. activation, HCC827 +IFNg” value amounted to 208%; the “max. activation, HCC827 -IFNg” value is 135%; the “max. activation, NF-kB reporter gene, CHO-PD-L1” value was determined as 242%; the “rel. IC50 (urelumab/test), HCC827 +IFNg” value worked out at 19.7 ratio. In [8], the “rel. IC50 (urelumab/test), HCC827 -IFNg” value came to 16 ratio and the “rel. IC50 (urelumab/test), NF-kB reporter gene, CHO-PD-L1” value was 14.4 ratio. In assay [1], this molecule gave a dissociation constant Kd of at most 0.0035 nM, a koff below 1e-05 s⁻¹ and a kon of 2.8e+06 M⁻¹ s⁻¹. In [9], this molecule showed a Kd of 3.5 nM, a koff of 0.00075 s⁻¹ and a kon of 210000 M⁻¹ s⁻¹. Besides, in assay [11], the binding result is listed as “no binding (tested: 0.12-90 nM)”.
